Assays:
[1] = biological target: Cdc20-activated yeast APC/C with the mutant Apc10 subunit Apc10-4A (S. cerevisiae | S. cerevisiae (endogenous in yeast)) (UniProt P26309); experiment: single-molecule off-rate (SMOR) assay, TIRF microscopy; target held on PEG/PEG-biotin glass by NeutrAvidin and biotinylated anti-Strep-Tag II antibody (tag on the activator); dye-labeled ligand (peptide no greater than 1 nM) in buffer C + BSA (20 mM HEPES pH 7.5, 150 mM KCl, 10% glycerol, 0.05% Tween-20, 1 mM DTT) with oxygen scavengers; mean dwell time from an exponential distribution; dwell times below 100 ms noted as single-frame (SF)
[2] = biological target: Cdh1-activated yeast APC/C with the mutant Apc10 subunit Apc10-4A (S. cerevisiae | S. cerevisiae (endogenous in yeast)) (UniProt P53197); experiment: as above
[3] = biological target: Cdh1-activated yeast APC/C (S. cerevisiae | S. cerevisiae (endogenous in yeast)) (UniProt P53197); experiment: fluorescence polarisation + other: single-molecule off-rate (SMOR) assay; inferred constants: kon from the KD of anisotropy and the koff of SMOR; KD for APC/C^Cdh1 from the dwell time with the kon of Cdh1 alone assumed
[4] = biological target: Cdh1-activated yeast APC/C (S. cerevisiae | S. cerevisiae (endogenous in yeast)) (UniProt P53197); experiment: single-molecule off-rate (SMOR) assay, TIRF microscopy; target held on PEG/PEG-biotin glass by NeutrAvidin and biotinylated anti-Strep-Tag II antibody (tag on the activator); dye-labeled ligand (peptide no greater than 1 nM) in buffer C + BSA (20 mM HEPES pH 7.5, 150 mM KCl, 10% glycerol, 0.05% Tween-20, 1 mM DTT) with oxygen scavengers; mean dwell time from an exponential distribution; dwell times below 100 ms noted as single-frame (SF)
[5] = biological target: Cdc20-activated yeast APC/C (S. cerevisiae | S. cerevisiae (endogenous in yeast)) (UniProt P26309); experiment: as above

Hsl1 fragment (amino acids 667–872) with C-terminal HaloTag, wild-type degrons, sequence (P34244 667-872): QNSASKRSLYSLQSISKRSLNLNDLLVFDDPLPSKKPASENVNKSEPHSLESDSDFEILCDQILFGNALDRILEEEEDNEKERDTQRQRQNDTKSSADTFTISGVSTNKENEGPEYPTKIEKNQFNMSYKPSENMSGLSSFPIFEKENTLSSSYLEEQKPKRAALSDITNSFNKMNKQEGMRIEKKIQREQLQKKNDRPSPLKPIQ
Cdh1-activated yeast APC/C with the mutant Apc10 subunit Apc10-4A (S. cerevisiae | S. cerevisiae (endogenous in yeast)), sequence (P53197 whole entry, looked up, change not shown, tested part not stated): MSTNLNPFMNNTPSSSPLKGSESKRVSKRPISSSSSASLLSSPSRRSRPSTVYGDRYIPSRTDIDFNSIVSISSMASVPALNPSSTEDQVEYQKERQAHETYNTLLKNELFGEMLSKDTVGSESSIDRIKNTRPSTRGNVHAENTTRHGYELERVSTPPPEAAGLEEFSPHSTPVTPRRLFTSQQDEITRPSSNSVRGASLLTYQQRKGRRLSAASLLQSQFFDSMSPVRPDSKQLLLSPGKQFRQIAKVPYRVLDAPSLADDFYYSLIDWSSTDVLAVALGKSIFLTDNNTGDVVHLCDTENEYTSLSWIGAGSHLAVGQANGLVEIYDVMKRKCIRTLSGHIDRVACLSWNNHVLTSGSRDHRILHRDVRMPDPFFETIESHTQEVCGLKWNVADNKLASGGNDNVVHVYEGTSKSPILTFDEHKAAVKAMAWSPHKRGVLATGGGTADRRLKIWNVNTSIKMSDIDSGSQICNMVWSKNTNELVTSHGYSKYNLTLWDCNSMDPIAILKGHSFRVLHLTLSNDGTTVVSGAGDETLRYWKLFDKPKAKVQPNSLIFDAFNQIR
Cdc20-activated yeast APC/C with the mutant Apc10 subunit Apc10-4A (S. cerevisiae | S. cerevisiae (endogenous in yeast)), sequence (P26309 whole entry, looked up, change not shown, tested part not stated): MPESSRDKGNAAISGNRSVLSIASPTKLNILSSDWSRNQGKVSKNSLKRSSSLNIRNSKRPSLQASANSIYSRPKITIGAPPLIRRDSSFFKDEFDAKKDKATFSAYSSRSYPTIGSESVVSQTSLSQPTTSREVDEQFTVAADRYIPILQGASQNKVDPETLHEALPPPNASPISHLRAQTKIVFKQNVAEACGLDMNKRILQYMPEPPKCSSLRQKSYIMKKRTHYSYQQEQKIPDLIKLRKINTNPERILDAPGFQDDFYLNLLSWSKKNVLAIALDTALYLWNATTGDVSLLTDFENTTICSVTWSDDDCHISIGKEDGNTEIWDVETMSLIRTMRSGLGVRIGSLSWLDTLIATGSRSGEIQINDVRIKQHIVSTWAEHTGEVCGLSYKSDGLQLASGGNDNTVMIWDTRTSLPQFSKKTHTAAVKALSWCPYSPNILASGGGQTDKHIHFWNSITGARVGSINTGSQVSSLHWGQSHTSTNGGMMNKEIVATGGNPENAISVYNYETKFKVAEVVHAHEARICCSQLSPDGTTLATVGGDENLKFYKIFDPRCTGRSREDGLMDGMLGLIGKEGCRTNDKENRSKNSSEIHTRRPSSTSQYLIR

mean dwell time [1] [s] | mean dwell time [2] [s] | Kd [3] [nM] | mean dwell time [4] [s] | mean dwell time [5] [s] | Substance
0.152 | 0.375 | – | – | – | Cy5-labeled Hsl1 D box peptide
0.449 | 75.9 | 4 | 321 | 0.518 | Hsl1 fragment (amino acids 667–872) with C-terminal HaloTag, wild-type degrons (from UniProt P34244 667-872) (domain or fragment)

Source: article PMC8764033, “Single-molecule analysis of specificity and multivalency in binding of short linear substrate motifs to the APC/C” (Nature Communications, 2022)
